This series can be described thus: label from the status in PepcDB records.
Turning to “MNIAPLKVSLLSLALLLSPVASLPAHAACTANLALQPASSLPALGGRLVYHSYMEYGDGSSNLYLHDFKSKSTRQLNQPGWNIEDPMNAHFSPDGRYLTFMGRQNGAWHVFAWAIGGTQAPSNLTAAIGGRNEDPKFSFDGRQVVLKHEGDIRLATLVFNGDGSVGVSAWKAVTGDGWSTEESMPFLTPSGKYVVYATGAGDSLRVVRRNLENGQVCALATPAAGGRDYYPVVRDYTAYFLSRTQPAGNDQLAMVVPNSPPGTPAILPLNHCQGDNSDAAPVNEDYLIFSSTSFDPTYSLLLGDIAAARVWRLDPAQINLPDGRQKLGASYTAAR”, the protein production entry was “failed”. The same measure for “MNIAPVVDSLSAPAMLEELKQSPPWLRLSLLFPLFFLNGWLIYKAMGFLQPLSSLLVAAALLAFLLDIPVRILVEKGLKRPWAVASVLLIALVVISLFLLIVIPLAIDQLGQLLDNLPGWFRSGNAQLLMLQAWVNEHYANLQVDLQPLISQAIEKLSRILNSFGNQLLGLVGVTISTSINGLILLVLTIFLVLGGEKIWDGIFSWFPHPWQRDLQNLIRDTFEGYFATQAILAGILSVAQMVVFTLLQAPYAILFAITIGLSTLIPFASALSIIVISLLLMLENFWLGVKILLAAVIVGQINDNVISPRLMGNRTGLNPAWIIVSLFVGSKLGGVLGLLVAVPLASVIKATSDRLRGLPKKSGEQPAEVSVVST”: “failed”.

On to “MNIEDDENKEKKETCLSYIKKINMSEIINDEAIGKRAEYLWNLALSAVYINVKLSMKYITLIKKITKNNLLFDNICCHYCNLIYIPFYNCKITHSPNQGKATYTCLLCKRKKKINLQHLSKHKNIYPLKHSDKHKPSTSNLSNVNFFLINEIDNYEIKKNNVPLNKDDTSNTENQLITKQENKNEDTLKDVSCADMQKEEHIINQDNIINQDNIINQDNIINQDNIINQDNIINQDNIINQDNIINQDNIINQDNIINQDNIINKNDMYQNLSYLFRIDYGINKDDTQKGNEIYDKSIVNESEKCKSVHIENNKNDDNKNMNSESKNIKNERKRKSQNNNIAQNKNQGFPNVNMNDGFLNFNKSKKKKGKSILDIL”, for which the protein production result is on record as “failed”. Consider “MNIFTEAAKLEEQNCPFAMAQIVDSRGSTPRHSAQMLVRADGSIVGTIGGGMVERKVIEESLQALQERKPRLFHGRMARNGADAVGSDCGGAMSVFISVHGMRPRLVLIGAGHVNRAIAQSAALLGFDIAVADIYRESLNPELFPPSTTLLHAESFGAAVEALDIRPDNFVLIATNNQDREALDKLIEQPIAWLGLLASRRKVQLFLRQLREKGVAEEHIARLHAPVGYNIGAETPQEIAISVLAEILQVKNNAPGGLMMKPSHPSGHQLVVIRGAGDIASGVALRLYHAGFKVIMLEVEKPTVIRCTVAFAQAVFDGEMTVEGVTARLATSSAEAMKLTERGFIPVMVDPACSLLDELKPLCVVDAILAKQNLGTRADMAPVTIALGPGFTAGKDCHAVIETNRGHWLGQVIYSGCAQENTGVPGNIMGHTTRRVIRAPAAGIMRSNVKLGDLVKEGDVIAWIGEHEIKAPLTGMVRGLLNDGLAVVGGFKIGDIDPRGETADFTSVSDKARAIGGGVLEALMMLMHQGVKATKEVLEVALEHHHHHH”, for which the protein production entry is on record as “failed”.

As to “MNIGSMDIQKIGMITSYRNLAKRADWLWQQTPQQFGIWQNIQIQALSGKPDFLLMYQFDFPKDNQQTSLIDKLRQKLQNPQVNVESLLRDVPKEKIIYLLREPPLDEIVEKNKRYYQEAKKYCGYISGPDDFAPKPDYMPAIWYHNNSFRELNEMPVPEKVFPCSWITSGISRTVNHRRRLKFVELIQASEVKCDVYGRDLPIWAKSLGELGNKWYGMAPYYYNLSIENYADNDWYVSEKLWDALLAWCLPIYYGGPAADKLLPPGSFLRLPSLDEKGIAYIQEVTATPDAWYAAKDAIAEARQLILHKLNLLNWLSEFVTQFS”, the protein production result is listed as “failed”.

Turning to “MNIGTFDRLLFAYSIGSHILIVLMSIGLSVILPVLEYIAIKYKDVYYDLLTRRVAKALVMFFAVGTASGAVMAVELIDLFPKFMTIIAVVGVLPFYYEIFAFFLETIMLVSYYYYWDVFKNRMHHWLLTFGVAGGTLASAVFITMINAWMNTPNGFNISYYEKTGKLIDVNPFITALTPSTGREVFHVVIVTAFAGLMVLGAFFAYQYLRAKTEEAKTLYMKGLKVTFPMNMFLIIMAGLSGTLEMSGLLTYQPEKYAALDLNPYPIARDAPEHLFGTIVEKNGHYYVLGGIKIPFVQSLLAGNGNLNTPVPGLSQFPTSTWPPLAVHDTFDLMVIGGTLLGLFLLSVLIAWILKKKPYESKGFMVAQILFAILTIPIYIGGWVTDEVGRQPWIIYNVMTVYQAANYSPSIIVPGYLIMAFYTILMPFSYWYAFRLMKQGDVKKEISSYKMPSTAHGR”, the protein production entry is recorded as “failed”. The same measure for “MNIIMNINSKAKGFVCGAVAAATYGMNPLFTLPLYKEGMSVDSVLFYRYGFAVLILGILMKVQGQSFALKKNEVLPLIVGGLLFSASSLLLFLSYKHMDAGIASTILFVYPVMVALIMFLFFHEKVSLLTVFCILLALSGIGLLYKGEGGETLSLVGMLLVILSSLSYAVYIVGVNHSTLKLMSTAKLTFYALLFGLSIYIVRLNFCSDLQAVPSLPAWGNILAMAFLPTVISLVCTAVSIHTIGSTSTAILGALEPVTALFFGVMIFGERLTPRLMLGILMILVAVTFIVVGKPLMTFLKEEVAGGMKRKLTR”: “failed”; for “MNIKEYLQQHPQWKKRIHGFIMHPVKTRPYWWIRVWQPFYIKKGRGSVIYSSVRKDLPPFHLFQMGKYSVVEDFSCLNNAVGDIVIGDYCRIGLGNTVIGPIRIDNGVNISQNVVLIGLDHNYQDITQGIIEQGITTSPIHIGEHTIIGANVIVLPGITIGKHCFIGAGCVVTQNIPDYCVTVGNPARIIKRYNPQSQTWEKI”: “failed”.

On to “MNIMEIEKTNRMNALFEFYAALLTDKQMNYIELYYADDYSLAEIADEFGVSRQAVYDNIKRTEKILETYEMKLHMYSDYVVRSEIFDDMIAHYPHDEYLQEKISILTSIDNRE”, for which the protein production entry was “not failed”. The result for “MNIPAAEPRARMTLAEFHRLLADQHPFAQVLGIDVVDIGHGTARAVLPARDTHQRLGGIVAGPMLMGLADLTMYAAVVGATGQAGAVTANLTIHFLRKTSGAAVIADARVLKTGRLAMAEAILRCDGADEPVAHVVSAWAVPAP” reads “failed”. The same measure for “MNIQIKKRFLANLLLFSLFCLKAETLSEDHQILLSSDAFHRGDFAAAQKGYMNLYKQTNKVVYAKEAAISAASLGDIKTAMHLAMLYQKITNNRNDVSINKILVDGYAQMGQIDKAIELLHKIRKEEKTIATDNVLGTLYLTQKRLDKAFPLLNKFYNQVHDEDSLEKLITIYFLQNRKKEGLDLLQSHIDRYGCSEQLCQKALNTFTQFNELDLAKTTFARLYEKNPIVQNAQFYIGVLILLKEFDKAQKIAELFPFDRRLLLDLYTAQKKFDQASKQASLIYQEKKDPKFLGLEAIYHYESLSANKKKLTKEEMLPIIQKLEQATKERQAWLAKTKDKEDAQDAFFYNFLGYSLIDYDMDIKRGMDFVRKALALDSGSVLYLDSLAWGYYKLGNCLEAKKIFSSIAKESIQAEPELKEHNKIIQECKK”: “failed”; for “MNIQSILSDKIKQAMILAGADQSCDALIRQSGKPQFGDYQANGIMAAAKKLGLNPREFAQKVLDNLQLSDIAEKLEIAGPGFINIFLNPTWLTTEISAALSHK”: “failed”; for “MNIREIAAKCSKCGYCTTCPTYRIEGWETVSPRGKIQLALKYVDGEIDVDQKIVKDIFKCSVCGLCQEVCPVELPLIDFWEELRRTLVQKGLAPLSVHRKLREITFRNYNPYSGDQERRGDWADFEIKPAKTLYFAGCTASFRLQNLAKSTASVLEKLGIDFTIAGKNEYCCGSPFLRTGQKDIVERLFEKNYAYWQKMGIERIITSCPGCYRTISLDYPKIAEEKGYEFDIEVVHTVSILDKMGEFEKIDLKATYHDPCHLGRHMGMYEEPRNVIKRLGINFVEMERNREQALCCGAGGGLRSQFPEISFEIGRQRVLEAMETGAEYLITCCPFCEYHLSKSAEKLGNRIKVVDLVEIAEKLISP”: “failed”. The same measure for “MNIRITNIQKQLHKYGIDGLLITKKENRQYATGFTGSAGVVLISADQAVFITDFRYVDQAKSQIQDAEIVMHKGNLEKEIAHQVSKLNIQKLGIEENNMTLQQYKNLQKYVHTEMIQVCEIIESIRIIKDTPEIETMKIAAHIADEAFHHILTFLKPGISENDVRDELEFFMRKKGATSSSFQIIVASGVRSSLPHGVASNKIIERSDIVTLDFGALYDGYCSDITRTVAIGEPSEEFKKIYNIVREALKRGTEAIKPGETAKRIDDITRNYITEHGYGQYFGHSTGHGLGLEIHEPLRLSQESKATLEEGMVVTVEPGIYIPNWGGCRIEDDIVITKDGYEVITKSNRELIVIPC”: “failed”; for “MNIRPSQIKHKQRIASFITHAVVVVMGVLIVSVLFQSYQISSRLMAQEGQRTSVQTSSLIQSLFDFRLAALRIHQDSTAKNASLINALVSRDSSRLDEFFSSVDELELSNAPDLRFISSHDNILWDDGNASFYGIAQQELNKLIRRVAISGNWHLVQTPSEGKSVHILMRRSSLIEAGTGQVVGYLYVGIVLNDNFALLENIRSGSNSENLVLAVDTTPLVSTLKGNEPYSLDYVVHSAKDAMRDSFIVGQTFLEVESVPTYLCVYSIQTNQNVLTLRDNFYFWMAFALISMIGVSIASRWWLQKRIQREIETLMNYTHKLMDLDTKSEFIGSKIYEFDYFGRTLEQSFRRLANKEKQFEDLFNFALSPTMLWNTSGRLIRMNPSAQIQFLREDAQNHFLFEILERQLLPTITNAAQGNNPSDVTTEVDGRVYRWNLSPIMVEGQIISIITQGQDITTIAEAEKQSQAARREAEESARVRAEFLAKMSHELRTPLNGVLGVSQLLKRTPLNDEQREHVAVLCSSGEHLLAVLNDILDFSRLEQGKFRIQKNEFRLKELVCAIDRIYRPLCNEKGLELVVNSNITTAAIVRSDQIRINQILFNLLNNAIKFTHQGSIRVELQLIEGDPLAQLVIQVVDTGIGIREQDLTVIFEPFMQAESTTTREYGGSGLGLTIVHSLVEMLSGQLHVSSEYGIGTRFEIQLPIELVEKPDAPQQLLPAPDPQPLFDKTLRVLLVEDNHTNAFIAQAFCRKYGLDVSWVTDGLQAIEELKIHDYDLVLMDNQLPYLDGVETTRTIKKVLHLPVVVYACTADGLEETRQAFFHAGAEYVLVKPLKEQTLHKALEHFKHHHGQKNAGLN”: “failed”; for “MNISLSRVHFPVTTLGPGQRLGLWFQGCSIRCAGCISADTWGPGKHPLPLAQVLDDLQPWLARAEGITLSGGEPFDQPEALLALLRGLRERTGVDILVYSGHSLETLQPLLQQAEGLLDALICDPFEQQQAQTLVLRGSDNQRLIFLTELGRQRLSTYQRPLHHEDRALDVMFDDDGSVWMAGIPRRDDVLRLRDLLHDQGHQLQISAHTSRRRLEHHHHHH”: “failed”. “MNITGIIAEYNPMHNGHIHHLEKTKEICKSDVILCVMSGDFVQRGEPAIIDKWSRAYAALSSGVDLVIELP”: the protein production entry is recorded as “failed”. Take “MNIWIRGGTSDANTISKEIKRNFKDSFLILTTTTDFGGKIAENFADFVISEKMNYDNLKKTLVNKKIDVFIDATHPFATHASETGMKISKELNIPYIRYERPVEEFKDVFYVENFEEAAKLALKISKKNIFYMSGIKNLKTVSEIIPIEKLIVRILPTSVPEALKILPSKNIVAMQGVFSENLNKDLITDYNCDVIITKDSGKSGGLYEKVSGAVLAGAKPIIIKRPEINYPLKFEKIDELVNYLKN”: the protein production entry is given as “failed”. The result for “MNKERNIIIAKNIRKFLNDSNMSQKKLAELINIKPSTLSDYLNLRSNPSHGVIQRIADVFEVGKSDIDTTYKDDNDITSIYNKLTPPRQENVLNYANEQLEEQNSKGDNVVDINSYKQEKTPVNVNGCVSAGVGERLHDETLFTEMVKGPIPTHDLALKVNGDSMEPMFKDGEIIFVEKTHNIKNGQIGIFIIEEEAYVKKVFVEDDRLTLVSLNKDYDDLHFYRNESVRLIGKVIL” reads “failed”.
